From the Human Domainome abundance scans (Beltran et al. 2025)

B1: GA-binding protein alpha chain, residues 172 to 250; numbered along this chain, Q06546 (parent)
chain: GYRKEQERLGIPYDPIQWSTDQVLHWVVWVMKEFSMTDIDLTTLNISGRELCSLNQEDFFQRVPRGEILWSHLELLRKY

Variants of: B1
Assay: abundance fitness (aPCA) (normalised: wild type 0, dead -1); higher = more abundant; growth selection in yeast, the domain comes from the species named
Settings: Homo sapiens

Abundance fitness, by site and new letter:
Q56: K -0.004 | A -0.044 | H -0.049 | C -0.162 | I -0.133 | G -0.245 | L -0.291 | P -0.178 | D -0.262 | M -0.107 | N -0.455 | F -0.087 | E -0.015
L44: V -0.193 | F -0.108 | H -0.825 | Q -1.09 | C -0.282 | G -0.711 | A -0.715 | S -0.745 | P -0.865 | D -0.945 | R -0.989 | M -0.019 | E -0.876 | K -0.862
M36: V -0.013 | S -0.102 | W -0.118 | R -0.029 | Q -0.08 | Y -0.053 | P -0.196
L51: I -0.374 | A -0.982 | V -0.652 | K -1.13 | G -0.92 | T -0.825 | H -0.928 | E -0.818 | M -0.163 | W -1.04 | Q -0.951 | P -0.746 | R -0.813 | D -0.786 | N -0.897 | F -0.815
I46: R -0.909 | G -0.796 | H -0.874 | L -0.034 | T -0.654 | Q -0.828 | W -0.257 | F -0.237 | S -1 | C -0.17 | E -0.939 | P -1 | K -0.835 | V -0.109 | A -0.584 | N -0.644 | M 0.069
S47: I -0.279 | H -0.266 | Q -0.276 | D -0.07 | V -0.418 | N -0.041 | P -0.04 | T 0.03 | W -0.812 | G -0.14 | E -0.061 | R -0.277 | F -0.866 | Y -0.637 | K -0.137 | M -0.446 | C -0.039 | A -0.161
E50: C -0.088 | I -0.156 | M -0.24 | S -0.291 | D -0.041 | N -0.252 | R -0.249 | Q 0.013 | Y -0.117 | H -0.2 | W -0.672 | P -0.94 | K -0.041 | G -0.594 | A -0.074 | L -0.201
C52: L -0.077 | I 0.076 | V -0.122 | Q -0.615 | N -0.47 | G -0.575 | Y -0.431 | K -0.887 | A -0.22 | T -0.226 | P -1.03 | F -0.333 | E -0.457 | S -0.335
T43: Y -0.005 | P 0.013 | F -0.299 | D 0.034 | A 0 | N -0.037 | V -0.065 | R -0.027 | H -0.149 | K 0.102 | I -0.202 | C 0.013 | Q -0.016 | W -0.123 | M -0.043 | S 0.014
L41: I 0.006 | P -0.028 | S -0.127 | F -0.094 | V -0.024 | W -0.132 | R -0.191 | G -0.134 | C -0.056 | D -0.386 | Y -0.025 | N -0.258 | H -0.063 | T -0.061 | Q -0.117 | M -0.008 | E -0.153 | A -0.049
L54: Q -0.446 | F -0.051 | Y -0.273 | H -0.486 | V -0.341 | W -0.021 | G -0.791 | K -0.649 | D -0.842 | S -0.693 | I -0.157 | E -0.484 | C -0.374 | R -0.682 | M -0.009
G48: Q -1.02 | R -0.944 | N -0.578
